# Key:
# [1] = biological target: Nucleolysin TIA-1 (endogenous mouse TIA1) (mouse) (UniProt P52912); assay: TIA1 IP-MS, WT2 cortex
# [2] = biological target: Nucleolysin TIA-1 (endogenous mouse TIA1) (mouse) (UniProt P52912); assay: TIA1 IP-MS, WT3 cortex
# [3] = biological target: Nucleolysin TIA-1 (endogenous mouse TIA1) (mouse) (UniProt P52912); assay: TIA1 IP-MS, tau KO 1 cortex
# [4] = biological target: Nucleolysin TIA-1 (endogenous mouse TIA1) (mouse) (UniProt P52912); assay: TIA1 IP-MS, WT1 cortex
# [5] = biological target: Nucleolysin TIA-1 (endogenous mouse TIA1) (mouse) (UniProt P52912); assay: TIA1 IP-MS, tau KO 2 cortex
# [6] = biological target: Nucleolysin TIA-1 (endogenous mouse TIA1) (mouse) (UniProt P52912); assay: TIA1 IP-MS, tau KO 3 cortex
# Sequence of UniProt P52912 (P52912 whole entry): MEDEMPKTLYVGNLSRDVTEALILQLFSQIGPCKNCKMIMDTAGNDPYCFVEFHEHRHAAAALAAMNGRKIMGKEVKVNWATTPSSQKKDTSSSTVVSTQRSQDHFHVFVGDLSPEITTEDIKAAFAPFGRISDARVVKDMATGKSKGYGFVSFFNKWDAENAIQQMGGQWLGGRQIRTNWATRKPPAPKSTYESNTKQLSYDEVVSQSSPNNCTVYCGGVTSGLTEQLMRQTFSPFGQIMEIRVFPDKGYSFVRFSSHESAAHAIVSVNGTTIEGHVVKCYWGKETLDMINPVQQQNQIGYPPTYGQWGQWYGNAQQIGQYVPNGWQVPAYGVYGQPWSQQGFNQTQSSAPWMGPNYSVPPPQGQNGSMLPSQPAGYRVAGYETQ
Substance,total ion current (normalized to TIA1 = 1000) [1],total ion current (normalized to TIA1 = 1000) [2],total ion current (normalized to TIA1 = 1000) [3],total ion current (normalized to TIA1 = 1000) [4],total ion current (normalized to TIA1 = 1000) [5],total ion current (normalized to TIA1 = 1000) [6]
Dihydropyrimidinase-related protein 3 (from UniProt Q62188 1-570),192,14.7,0,0,96,0
Dual specificity mitogen-activated protein kinase kinase 1 (from UniProt P31938 1-393),108,83.7,0,0,67.8,0
Eukaryotic initiation factor 4A-I (from UniProt P60843 2-406),150,76.1,0,0,121,0
Fructose-bisphosphate aldolase C (from UniProt P05063 2-363),69.5,41.6,0,0,43.2,0
"Glutamate dehydrogenase 1, mitochondrial (from UniProt P26443 54-558)",402,162,0,0,365,0
Glutathione S-transferase Mu 1 (from UniProt P10649 2-218),286,57.4,0,0,91.1,0
Glutathione S-transferase P 1 (from UniProt P19157 2-210),0,0,0,31.6,0,0
"Glycerol-3-phosphate dehydrogenase, mitochondrial (from UniProt Q64521 43-727)",0,0,18.8,3.01,0,0
Guanine deaminase (from UniProt Q9R111 1-454),0,68.5,0,0,75.3,0
Guanine nucleotide-binding protein G(z) subunit alpha (from UniProt O70443 2-355),59.4,0,0,0,0,0
Hemoglobin subunit alpha (from UniProt P01942 2-142),69.1,0,0,0,0,0
Heterogeneous nuclear ribonucleoprotein R (from UniProt Q8VHM5 2-632),374,48.5,26.7,34.6,69.2,0
Heterogeneous nuclear ribonucleoprotein U-like protein 2 (from UniProt Q00PI9 1-745),53.3,0,11.7,11.1,17,0
High mobility group protein B1 (from UniProt P63158 1-215),182,38,15.7,6.6,60.8,0
Histone H1.4 (from UniProt P43274 2-219),56,78.1,0,0,55.4,0
Hypoxanthine-guanine phosphoribosyltransferase (from UniProt P00493 1-218),21,0,0,0,54.1,0
"Isocitrate dehydrogenase [NAD] subunit alpha, mitochondrial (from UniProt Q9D6R2 28-366)",186,138,0,0,155,0
"Isocitrate dehydrogenase [NAD] subunit, mitochondrial (from UniProt Q91VA7 34-384)",110,0,0,0,29.9,0
"Isoform 2 of 4-aminobutyrate aminotransferase, mitochondrial (from UniProt P61922 29-444)",272,79.4,0,0,112,0
Isoform 2 of AP-2 complex subunit beta (from UniProt Q9DBG3 2-951),105,67.8,0,0,102,0

# — US20190142860A1, “NUCLEIC ACID BASED TIA-1 INHIBITORS” (Aquinnah Pharmaceuticals, Inc., priority 2015, published 2019)
